Measured values taken from the supplement of paper PMC12338614.
± gives the uncertainty stated by the source.

B1: library; numbered along this chain (parent)
chain: MEVVDPQQLGMFTEGELMSVGMDTFIHRIDSTEVIYQPRRKRAKLIGKYLMGDLLGEGSYGKVKEVLDSETLCRRAVKILKKKKLRRIPNGEANVKKEIQLLRRLRHKNVIQLVDVLYNEEKQKMYMVMEYCVCGMQEMLDSVPEKRFPVCQAHGYFCQLIDGLEYLHSQGIVHKDIKPGNLLLTTGGTLKISDLGVAEALHPFAADDTCRTSQGSPAFQPPEIANGLDTFSGFKVDIWSAGVTLYNITTGLYPFEGDNIYKLFENIGKGSYAIPGDCGPPLSDLLKGMLEYEPAKRFSIRQIRQHSWFRKKHPPAEAPVPIPPSPDTKDRWRSMTVVPYLEDLHGADEDEDLFDIEDDIIYTQDFTVPGQVPEEEASHNGQRRGLPKAVCMNGTEAAQLSTKSRAEGRAPNPARKACSASSKIRRLSACKQQ

Variants of: B1
Assay: STK11 functional score (HeLa growth suppression), rescaled enrichment; synonymous median = 1, nonsense median = 0 (normalised score)
Settings: with HeLa; variant type: missense
Method in brief: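 The values are functional scores: wild-type-corrected log ratios of post- versus pre-selection abundance, rescaled to synonymous and nonsense medians, merged over codons and replicate transfections, and carrying bootstrapped error. They derive from codon-randomised (POPCode), codon-optimised STK11 libraries that Bxb1 integrated at an AAVS1 landing pad in HeLa, with three transfections for each of three regions. Sequencing of tiled gDNA amplicons ran on NextSeq, at ~2 million reads per tile.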
For M18R, the STK11 functional score was 0.834 ± 0.13. N266M gave an STK11 functional score of 0.331 ± 0.095. With I267M the STK11 functional score was 0.815 ± 0.11. Q170L was tested, and the STK11 functional score was 0.967 ± 0.15. In the case of R103I, the STK11 functional score is reported as 1 ± 0.15. Q123M gave an STK11 functional score of 1.6 ± 0.17. Work on R415E yielded an STK11 functional score of 1.48 ± 0.33. Variant L183M has an STK11 functional score of -0.0817 ± 0.087. For E14K, the STK11 functional score was 0.385 ± 0.59. M139V gave an STK11 functional score of 0.965 ± 0.098. Y49S was tested, and the STK11 functional score was 1 ± 0.28. Variant P323F has an STK11 functional score of 1.36 ± 0.33. Variant L102D has an STK11 functional score of 0.469 ± 0.2. Work on T395P yielded an STK11 functional score of 1.32 ± 0.53. With E291A the STK11 functional score was 1.47 ± 0.44. Variant G188C has an STK11 functional score of 0.212 ± 0.11. Variant R86W has an STK11 functional score of 0.178 ± 0.085. For I361W, the STK11 functional score was 1.62 ± 0.16. P324M gave an STK11 functional score of 0.794 ± 0.7. Work on W332G yielded an STK11 functional score of 1.55 ± 0.14. E349Y was tested, and the STK11 functional score was 0.952 ± 0.56. Variant Q305M has an STK11 functional score of 1.51 ± 0.15. With M127H the STK11 functional score was 1.63 ± 0.2. In the case of Q220M, the STK11 functional score is reported as 1.15 ± 0.51. In the case of Q371S, the STK11 functional score is reported as 1.32 ± 0.15. W332M gave an STK11 functional score of 1.42 ± 0.27. E317M gave an STK11 functional score of 0.316 ± 0.21. Variant C278S has an STK11 functional score of 1.21 ± 0.18. In the case of T212P, the STK11 functional score is reported as 0.926 ± 0.38. With P38Q the STK11 functional score was 1.58 ± 0.15. With G52I the STK11 functional score was 1.64 ± 0.2. In the case of G10D, the STK11 functional score is reported as 1.4 ± 0.1. Variant P413N has an STK11 functional score of 1.6 ± 0.11. In the case of L167R, the STK11 functional score is reported as -0.0722 ± 0.082. D284G gave an STK11 functional score of 0.99 ± 0.21. Work on H154F yielded an STK11 functional score of 0.39 ± 0.065. With P275T the STK11 functional score was 0.875 ± 0.18. M127V showed an STK11 functional score of 0.95 ± 0.26. L245K showed an STK11 functional score of 0.475 ± 0.15. Variant Q214T has an STK11 functional score of 1.64 ± 0.2. With K388V the STK11 functional score was 1.3 ± 0.2. Work on S283F yielded an STK11 functional score of 0.745 ± 0.076. V368W showed an STK11 functional score of 0.786 ± 0.6. V95R showed an STK11 functional score of 1.02 ± 0.16. Work on F148L yielded an STK11 functional score of 0.829 ± 0.095. R39N was tested, and the STK11 functional score was 0.65 ± 0.66. With I224T the STK11 functional score was 0.252 ± 0.4. Work on F264G yielded an STK11 functional score of 1.01 ± 0.21. For L282T, the STK11 functional score was 0.466 ± 0.16. N380H gave an STK11 functional score of 1.48 ± 0.38. For D115R, the STK11 functional score was 1.52 ± 0.27. Work on L263V yielded an STK11 functional score of 0.76 ± 0.22. N412F gave an STK11 functional score of 1.23 ± 0.15. With T209C the STK11 functional score was 1.12 ± 0.13. In the case of L182V, the STK11 functional score is reported as 0.907 ± 0.12. R86D showed an STK11 functional score of 1.68 ± 0.19. G394I showed an STK11 functional score of 1.51 ± 0.21. Variant A347Y has an STK11 functional score of 1.34 ± 0.44. N109S showed an STK11 functional score of 0.492 ± 0.18. With E291G the STK11 functional score was 0.922 ± 0.22. With P221Y the STK11 functional score was -0.0979 ± 0.12. Variant L45S has an STK11 functional score of 1.36 ± 0.14. C418H gave an STK11 functional score of 1.17 ± 0.18. In the case of A398C, the STK11 functional score is reported as 1.35 ± 0.39. S216W gave an STK11 functional score of -0.0568 ± 0.11. With P319C the STK11 functional score was 0.642 ± 0.073. D176G showed an STK11 functional score of -0.169 ± 0.064. Work on G270S yielded an STK11 functional score of 1.47 ± 0.17. A410P was tested, and the STK11 functional score was 0.257 ± 0.39. S421I was tested, and the STK11 functional score was 1.52 ± 0.13. In the case of C73G, the STK11 functional score is reported as 1 ± 0.2. For H168V, the STK11 functional score was 0.473 ± 0.13. Variant L344R has an STK11 functional score of 1.46 ± 0.25. Work on K48A yielded an STK11 functional score of 0.852 ± 0.2. In the case of G10M, the STK11 functional score is reported as 1.51 ± 0.42. Work on E317P yielded an STK11 functional score of 1.6 ± 0.21. I356H was tested, and the STK11 functional score was 1.51 ± 0.22. With E70I the STK11 functional score was 1.54 ± 0.19. With A198N the STK11 functional score was 0.745 ± 0.5. In the case of D176E, the STK11 functional score is reported as 0.211 ± 0.1. Work on K81N yielded an STK11 functional score of 1.37 ± 0.34. With Q112T the STK11 functional score was 1.27 ± 0.39. With R147L the STK11 functional score was 0.461 ± 0.097. Q399F was tested, and the STK11 functional score was 1.27 ± 0.39. E256C showed an STK11 functional score of 0.541 ± 0.33. G385L gave an STK11 functional score of 0.869 ± 0.17. In the case of P411W, the STK11 functional score is reported as 0.581 ± 0.075. With Q100Y the STK11 functional score was 0.248 ± 0.19. A429S gave an STK11 functional score of 1.29 ± 0.2. S240C gave an STK11 functional score of 1.38 ± 0.098. For S421G, the STK11 functional score was 1.38 ± 0.21. In the case of L55M, the STK11 functional score is reported as 0.938 ± 0.19. Variant G91V has an STK11 functional score of 0.481 ± 0.08. Variant G257I has an STK11 functional score of 1.66 ± 0.44. For D330H, the STK11 functional score was 0.985 ± 0.41. Work on M127T yielded an STK11 functional score of 1.32 ± 0.48. T185R was tested, and the STK11 functional score was 0.992 ± 0.21. Work on R333A yielded an STK11 functional score of 1.28 ± 0.17. Work on R40H yielded an STK11 functional score of 1.09 ± 0.64. For D330I, the STK11 functional score was 1.33 ± 0.39. I29S showed an STK11 functional score of 1.32 ± 0.17. In the case of T244C, the STK11 functional score is reported as 1.32 ± 0.29. In the case of A153G, the STK11 functional score is reported as 1.13 ± 0.13. In the case of M139A, the STK11 functional score is reported as 1.39 ± 0.58. D229V showed an STK11 functional score of 0.388 ± 0.095. K108R gave an STK11 functional score of 1.33 ± 0.16. For D30L, the STK11 functional score was 1.07 ± 0.12. H345L gave an STK11 functional score of 1.2 ± 0.16. Work on S216A yielded an STK11 functional score of 0.851 ± 0.13. L201S gave an STK11 functional score of 0.759 ± 0.098. K296N gave an STK11 functional score of 1.12 ± 0.44. With K191T the STK11 functional score was 1.16 ± 0.12. Variant K287Q has an STK11 functional score of 1.19 ± 0.51. For A406T, the STK11 functional score was 1.42 ± 0.35. G180I showed an STK11 functional score of 1.41 ± 0.39. In the case of V368R, the STK11 functional score is reported as 0.87 ± 0.44. G288R showed an STK11 functional score of 0.927 ± 0.28. Variant E199Q has an STK11 functional score of 0.887 ± 0.61. For E407W, the STK11 functional score was 0.194 ± 0.092. With Y36F the STK11 functional score was 0.511 ± 0.078. G408N gave an STK11 functional score of 1.54 ± 0.35. Variant T367S has an STK11 functional score of 1.51 ± 0.24. D207G was tested, and the STK11 functional score was 0.954 ± 0.25. Variant Q8L has an STK11 functional score of 1.5 ± 0.66. With A417I the STK11 functional score was 1.51 ± 0.17. M18Y showed an STK11 functional score of 1.43 ± 0.41. Work on D162T yielded an STK11 functional score of 1.4 ± 0.28. E130Y was tested, and the STK11 functional score was 0.104 ± 0.12. In the case of K178I, the STK11 functional score is reported as 0.388 ± 0.11. For H379A, the STK11 functional score was 1.38 ± 0.37. With M136A the STK11 functional score was 0.691 ± 0.12. For K287I, the STK11 functional score was 1.27 ± 0.33. With E396I the STK11 functional score was 1.57 ± 0.28. With T363C the STK11 functional score was 1.33 ± 0.48. T363Y gave an STK11 functional score of 1.18 ± 0.44. For L80H, the STK11 functional score was 0.878 ± 0.092. E317S was tested, and the STK11 functional score was 0.661 ± 0.31. Variant P314Y has an STK11 functional score of 0.95 ± 0.15. With H154Y the STK11 functional score was 1.26 ± 0.12. Variant T367E has an STK11 functional score of 1.5 ± 0.15. With Y292D the STK11 functional score was 1.09 ± 0.67. C278M was tested, and the STK11 functional score was 1.37 ± 0.14. V338W gave an STK11 functional score of 0.683 ± 0.13. Work on S232C yielded an STK11 functional score of 1.17 ± 0.22. Variant S169Y has an STK11 functional score of 1.54 ± 0.34. A153L showed an STK11 functional score of 0.0918 ± 0.087. Variant E223T has an STK11 functional score of 0.188 ± 0.086. Variant L72M has an STK11 functional score of 0.649 ± 0.15. Work on S240Q yielded an STK11 functional score of 0.866 ± 0.15. S142W was tested, and the STK11 functional score was 0.385 ± 0.093. S378W gave an STK11 functional score of 0.76 ± 0.1. K146N showed an STK11 functional score of 1.16 ± 0.26. E349N showed an STK11 functional score of 1.48 ± 0.19. P314L showed an STK11 functional score of 1.21 ± 0.15. In the case of E223I, the STK11 functional score is reported as 0.17 ± 0.24. With L344K the STK11 functional score was 1.59 ± 0.27. Work on D355W yielded an STK11 functional score of 1.57 ± 0.17. With H107E the STK11 functional score was 0.776 ± 0.079. V390C showed an STK11 functional score of 1.06 ± 0.48. Variant K96S has an STK11 functional score of 1.11 ± 0.12. R103C gave an STK11 functional score of 1.05 ± 0.22. D327N was tested, and the STK11 functional score was 1.3 ± 0.64. In the case of H313Q, the STK11 functional score is reported as 0.889 ± 0.49. For G187I, the STK11 functional score was 1.62 ± 0.17. T367Y gave an STK11 functional score of 1.54 ± 0.2. For S31G, the STK11 functional score was 1.57 ± 0.12. In the case of K235H, the STK11 functional score is reported as 1.29 ± 0.19.
